Experimental data taken from patent US20040228836A1.

Target: intranuclear antigens consisting of histone DNA complexes (in fixed Raji cells)
Experiment: 125I-labeled MAb incubated with fixed Raji cells; Scatchard analysis of bound radioactivity

Ka: 2.5e+09 M⁻¹
Substance: chimeric TNT-1 monoclonal antibody (chTNT-1)
